Source: patent US20240317859A1 (FOUNDATION FOR BIOMEDICAL RESEARCH AND INNOVATION AT KOBE, published 2024)
Changes are numbered by the printed parent chain. Names and notes keep the numbering of the source.

T1: substituted human PD-1, domain #1 replaced with the corresponding amino acid sequence of mouse PD-1 (human; mouse, UniProt Q15116 25-288)
T1 construct: also called PD-1 when domain #1 is replaced
T1 chain: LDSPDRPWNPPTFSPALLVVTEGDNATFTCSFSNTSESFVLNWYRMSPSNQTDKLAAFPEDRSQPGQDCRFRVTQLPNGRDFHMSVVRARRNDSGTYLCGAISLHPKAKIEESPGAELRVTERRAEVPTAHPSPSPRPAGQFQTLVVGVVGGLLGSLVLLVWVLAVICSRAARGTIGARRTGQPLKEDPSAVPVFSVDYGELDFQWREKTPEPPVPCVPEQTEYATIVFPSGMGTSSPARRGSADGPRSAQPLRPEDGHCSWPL

T2: substituted human PD-1, domain #6 replaced with the corresponding amino acid sequence of mouse PD-1 (human; mouse, UniProt Q15116 25-288)
T2 construct: Human limits of domain #6 (109-120) are printed; also called PD-1 if domain #6 is replaced
T2 chain: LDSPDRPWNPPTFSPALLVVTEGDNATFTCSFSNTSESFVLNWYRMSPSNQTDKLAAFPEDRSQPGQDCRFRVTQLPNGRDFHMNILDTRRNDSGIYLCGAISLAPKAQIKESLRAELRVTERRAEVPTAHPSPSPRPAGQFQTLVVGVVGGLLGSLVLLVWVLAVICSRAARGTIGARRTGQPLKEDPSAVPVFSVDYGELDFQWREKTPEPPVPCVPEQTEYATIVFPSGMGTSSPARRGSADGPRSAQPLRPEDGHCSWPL

T3: substituted human PD-1, domain #7 replaced with the corresponding amino acid sequence of mouse PD-1 (human; mouse, UniProt Q15116 25-288)
T3 construct: Human limits of domain #7 (38-48) are printed; also called PD-1 if domain #7 is replaced
T3 chain: T1 chain with S14Y, L17W, V19T, T21S, D24A, H105A, K109Q, E111K, P114L, G115R

B1: HM268-J7 (antibody, human IgG1, V domains shown)
VH: QVQLVQSGPEVKKPGASVKVVCKTSGYTFTSYYIQWVRQVPGQGLEWMGWIYFGDASTKYNEKFKGKTTLTADKSTSTAYMELRSLRSDDTAVYYCASYYGSYFDYWGQGTTVTVSS
VL: DIQMTQNTSSLSASVGDRVTITCRASQDISNYLNWYQQKPDGTVKLLIYSTSRLHSGVPSRFSGSGSGTDYTLTISSLEQEDFATYYCQQGSTLPFTFGQGTKLEIK
notes: also called humanized HM268, VH ver.J / VL ver.7
B2: humanized HM268-K8-IgG1-K322A (antibody, V domains shown)
VH: B1 VH with V37L, R38K, V40R, M48I, K67R, T68V, L70M
VL: DIQMTQSPSSLSASVGDRVTITCRASQDISNYLNWYQQKPDGTVKLLIYSTSRLHSGVPSRFSGSGSGTDYTLTISSLQPEDFATYYCQQGSTLPFTFGQGTKLEIKR
B3: HM268-M7 (antibody, human IgG1, V domains shown)
VH: B1 VH with T24A, K67R, T68V, L70M, K74T
VL: B1 VL
notes: also called humanized HM268, VH ver.M / VL ver.7
B4: HM268-J9 (antibody, human IgG1, V domains shown)
VH: B1 VH
VL: B1 VL with N7S, T8P, D41G, G42K, T43A, V44P, E79Q, Q80P
notes: also called humanized HM268, VH ver.J / VL ver.9
B5: HM268-L7 (antibody, human IgG1, V domains shown)
VH: B1 VH with K67R, T68V, L70M, K74T
VL: B1 VL
notes: also called humanized HM268, VH ver.L / VL ver.7
B6: HM268-L9 (antibody, human IgG1, V domains shown)
VH: B1 VH with K67R, T68V, L70M, K74T
VL: B1 VL with N7S, T8P, D41G, G42K, T43A, V44P, E79Q, Q80P
notes: also called humanized HM268, VH ver.L / VL ver.9
B7: HM268-K9 (antibody, human IgG1, V domains shown)
VH: B1 VH with V37L, R38K, V40R, M48I, K67R, T68V, L70M
VL: B1 VL with N7S, T8P, D41G, G42K, T43A, V44P, E79Q, Q80P
notes: also called humanized HM268, VH ver.K / VL ver.9
B8: HM268-L8 (antibody, human IgG1, V domains shown)
VH: B1 VH with K67R, T68V, L70M, K74T
VL: B1 VL with N7S, T8P, E79Q, Q80P
notes: also called humanized HM268, VH ver.L / VL ver.8
B9: HM268-M9 (antibody, human IgG1, V domains shown)
VH: B1 VH with T24A, K67R, T68V, L70M, K74T
VL: B1 VL with N7S, T8P, D41G, G42K, T43A, V44P, E79Q, Q80P
notes: also called humanized HM268, VH ver.M / VL ver.9
B10: HM268-K7 (antibody, human IgG1, V domains shown)
VH: B1 VH with V37L, R38K, V40R, M48I, K67R, T68V, L70M
VL: B1 VL
notes: also called humanized HM268, VH ver.K / VL ver.7
B11: HM268-J8 (antibody, human IgG1, V domains shown)
VH: B1 VH
VL: B1 VL with N7S, T8P, E79Q, Q80P
notes: also called humanized HM268, VH ver.J / VL ver.8
B12: chimeric HM268-IgG1-K322A (antibody)
heavy: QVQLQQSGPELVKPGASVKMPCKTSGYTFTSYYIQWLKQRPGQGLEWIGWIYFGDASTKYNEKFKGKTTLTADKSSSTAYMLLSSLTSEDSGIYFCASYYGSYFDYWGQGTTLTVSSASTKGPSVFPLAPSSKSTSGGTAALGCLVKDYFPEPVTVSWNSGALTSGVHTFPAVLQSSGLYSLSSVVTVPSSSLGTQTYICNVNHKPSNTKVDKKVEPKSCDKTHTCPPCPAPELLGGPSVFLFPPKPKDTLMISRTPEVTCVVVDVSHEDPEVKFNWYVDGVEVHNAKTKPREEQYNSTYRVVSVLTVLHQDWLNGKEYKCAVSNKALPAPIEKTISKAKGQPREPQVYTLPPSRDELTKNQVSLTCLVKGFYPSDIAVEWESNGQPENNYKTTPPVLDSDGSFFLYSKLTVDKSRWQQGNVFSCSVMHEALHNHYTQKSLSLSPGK
light: NIQMTQNTSSLSATLGVRVTISCRASQDISNYLNWYQQKPDGTVKLLIYSTSRLHSGIPSRFSGSGSGTDYSLTISNLEQEDIATYFCQQGSTLPFTFGGGTKLEIKRTVAAPSVFIFPPSDEQLKSGTASVVCLLNNFYPREAKVQWKVDNALQSGNSQESVTEQDSKDSTYSLSSTLTLSKADYEKHKVYACEVTHQGLSSPVTKSFNRGEC
notes: Mouse Fab region with the Fc region of human IgG1-K322A
B13: mouse HM297 (antibody, mouse IgG2a, kappa)
heavy: EVLLQQSGPELVKPGASVKIPCKASGYTFTDYNVDWVRQSHGKSLEWIGDIDPNNGGTIYNQKFKDKATLTVDKSSRTAYMELRSLTSEDTAVYYCARWRGAMDYWGQGTSVTVSSAKTTAPSVYPLAPVCGDTTGSSVTLGCLVKGYFPEPVTLTWNSGSLSSGVHTFPAVLQSDLYTLSSSVTVTSSTWPSQSITCNVAHPASSTKVDKKIEPRGPTIKPCPPCKCPAPNLLGGPSVFIFPPKIKDVLMISLSPIVTCVVVDVSEDDPDVQISWFVNNVEVHTAQTQTHREDYNSTLRVVSALPIQHQDWMSGKEFKCKVNNKDLPAPIERTISKPKGSVRAPQVYVLPPPEEEMTKKQVTLTCMVTDFMPEDIYVEWTNNGKTELNYKNTEPVLDSDGSYFMYSKLRVEKKNWVERNSYSCSVVHEGLHNHHTTKSFSRTPGK
light: DVQMTQTTSSLSASLGDRVTISCRASQDIDNYLKWYQQKPDGTVKLLIYDTSRLHSGVPSRFSGSGSGTDYSLTISNLKQEDIATYFCQQGYTLPWTFGGGTRLEIKRADAAPTVSIFPPSSEQLTSGGASVVCFLNNFYPKDINVKWKIDGSERQNGVLNSWTDQDSKDSTYSMSSTLTLTKDEYERHNSYTCEATHKTSTSPIVKSFNRNEC
notes: Mouse anti-human PD-1 monoclonal antibody (mouse IgG)
B14: HM698 (antibody, V domains shown)
VH: EVLLQQSGPELVKPGASVKIPCKASGYTFTDYNMDWVKQSHGKSLEWIGDIDPNNGGTVYNQKFKGKASLTVDKSSSTAYMELRSLTSEDTAVYYCARWRSAMDYWGQGTSVTVSS
VL: DIQMTQTTSSLSASLGDRVTISCRASQDISNYLNWYQQKPDGTVKLLIYYTSRLHSGVPSRFSGSGSGTDYSLTISNLEQEDIATYFCQQYNTLPWTFGGGTKLEIKR
B15: HM647 (antibody, V domains shown)
VH: B14 VH with P21T, G66D, A79G
VL: B14 VL with T7P, Y49S, E81V, N92S, T102S

Each binder was assayed against human PD-1 (wild-type), expressed on cells (human, UniProt Q15116 25-288) (assay: cell-based or functional assay).

Row | Cell-cell contact assay | Binder
1 | 70.9 ng/mL | B1
2 | 39.4 ng/mL | B2
3 | 149 ng/mL | B3
4 | 301 ng/mL | B4
5 | 103 ng/mL | B5
6 | 87.4 ng/mL | B6
7 | 150 ng/mL | B7
8 | 98.2 ng/mL | B8
9 | 1430 ng/mL | B9
10 | 43.7 ng/mL | B10
11 | 63.1 ng/mL | B11
12 | 46.5 ng/mL | B12

Target: T1, substituted human PD-1, domain #1 …
Test: flow cytometry on cells expressing substituted human PD-1
Source text: (§1) These sub-groups of antibodies are characterized by a common nature that they bind to domain #6 and domain #7, and are distinguished from known antibodies.
(§2) The gene of human PD-1 (wild-type) or substituted human PD-1 in which regions 1 to 8 as shown in FIG. 2A were replaced with mouse sequences and a gene of fluorescent protein such as GFP were co-expressed in a cell line (such as DO11.10 T cell hybridoma or HEK293T) by means of a vector ligating the genes with IRES sequences. The expression level of PD-1 on this cell line is correlated with the expression level of fluorescent protein such as GFP. Anti-PD-1 antibody was bound to the PD-1/GFP expressing cells, and the bound antibody was detected with a secondary antibody labeled with a different fluorescent dye. Briefly, PD-1-expressing cells were seeded in V-shaped bottom 96-well plates at 1×10⁵ cells/well. To each cell pellet, 50 μl of anti-human PD-1 antibody adjusted to 5 μg/ml was added and mixed. The mixture was incubated at 4° C. for 15 minutes. After washing, BV421-labeled anti-mouse IgG antibody or BV421-labeled anti-human IgG antibody, each adjusted to 5 μg/ml, was added in 50 μl. The mixture was incubated at 4° C. for 15 minutes. After washing, cells were suspended in 200 μl of buffer, and passed through a 70 μm filter. The fluorescence intensity of the filtrate was measured with a flow cytometer. The thus obtained fluorescence intensity can be rephrased as the binding capacity of anti-human PD-1 antibody to human PD-1 (wild-type or substituted). […] Binding characteristics to R143A point mutant or substituted Mouse PD-1 (hu38-48) were also analyzed in the same manner.

Row | binding result | Binder
13 | no binding (tested: 5 µg/ml) | B13

Target: T2, substituted human PD-1, domain #6 …
Test: as above
Source text: as §1, §2

Row | binding result | Binder
14 | no binding (tested: 5 µg/ml) | B14
15 | no binding (tested: 5 µg/ml) | B15
16 | no binding (tested: 5 µg/ml) | B13

Target: T3, substituted human PD-1, domain #7 …
Test: as above
Source text: as §1, §2

Row | binding result | Binder
17 | no binding (tested: 5 µg/ml) | B14
18 | no binding (tested: 5 µg/ml) | B15
19 | no binding (tested: 5 µg/ml) | B13

These binders were tested against Human PD-1/PDCD1 Protein (PD-1) (human, UniProt Q15116 25-167, limits assumed) (assay: SPR, Biacore 8K; PD-1 captured by anti-His antibody, antibody in flow).
Experimental: The binding affinity of each antibody to human PD-1 was measured with Biacore 8K (Cytiva). Briefly, anti-His Tag antibody was immobilized by amine coupling using Amine Coupling Kit and His Capture Kit, onto 8 channels of a sensor chip (provided with 16 flow cells; one channel consisting of two flow cells) which had carboxymethyl dextran immobilized on a gold film. The immobilization was performed by feeding an activation solution (NHS and EDC mixed in equal amounts) at a flow rate of 10 μl/min for 7 minutes, an immobilization solution at a flow rate of 5 μl/min for 7 minutes, and 1 M ethanolamine hydrochloride-NaOH (pH 8.5) at a flow rate of 10 μl/min for 7 minutes. The buffer used at the time of immobilization was 1×HBS-EP+ Buffer. After the immobilization and before applying a sample, Human PD-1/PDCD1 Protein (PD-1) adjusted to 1 μg/ml with 1×HBS-EP+ Buffer was fed to one of the two flow cells of each channel in an amount of 20 μl at a flow rate of 10 μl/min to thereby capture PD-1 on the sensor chip. As regards the other flow cell, 1×HBS-EP+ Buffer was fed in the same manner to prepare a control flow cell. Each antibody was adjusted to 16 nM with 1×HBS-EP+ Buffer, and then subjected to 2-fold 7-step serial dilution using 1×HBS-EP+ Buffer. The resultant sample solution (30 μl) was fed to each flow cell at a flow rate of 10 μl/min and the response was measured. After subtracting the response of control flow cell from the response of the flow cell which was allowed to capture the ligand, KD value was calculated by curve fitting using Biacore 8K Evaluation Software.

Row | Kd | Binder
20 | 4.82 pM | B1
21 | < 3.06 pM | B2
22 | 12 pM | B3
23 | 25.2 pM | B4
24 | 2.16 pM | B5
25 | 11.1 pM | B6
26 | 151 pM | B7
27 | 1.29 pM | B8
28 | 61.4 pM | B9
29 | 6.91 pM | B10
30 | < 2.84 pM | B11
31 | < 1.69 pM | B12
